Article PMC10989928, “Cell division factor ZapE regulates Pseudomonas aeruginosa biofilm formation by impacting the pqs quorum sensing system” (mLife, 2023)

Target: T1, MBP-PqsH, recombinant (P. aeruginosa PAO1, UniProt Q9I0Q0 1-382)
T1 construct: also called PqsH protein; source: E. coli BL21 (DE3), pMAL-C5x, purified (Dextrin Beads 6FF, Mono Q ion exchange, Superdex 200 gel filtration)
T1 sequence: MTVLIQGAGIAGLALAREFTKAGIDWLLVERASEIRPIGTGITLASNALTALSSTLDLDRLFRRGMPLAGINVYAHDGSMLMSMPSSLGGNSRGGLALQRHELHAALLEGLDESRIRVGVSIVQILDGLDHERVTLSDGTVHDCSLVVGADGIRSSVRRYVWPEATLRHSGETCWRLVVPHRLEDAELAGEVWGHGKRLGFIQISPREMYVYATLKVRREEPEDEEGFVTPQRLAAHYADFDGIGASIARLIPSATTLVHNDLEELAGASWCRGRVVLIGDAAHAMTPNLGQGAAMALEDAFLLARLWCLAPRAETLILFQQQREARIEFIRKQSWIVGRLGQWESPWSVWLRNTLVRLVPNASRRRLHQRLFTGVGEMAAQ
Assay: SPR
Conditions: both partners purified

B1: HIS-ZapE, recombinant (natural protein, P. aeruginosa PAO1, UniProt Q9HVX7 1-364, looked up)
chain: MTPLERYQADLQRPDFFHDAAQANAVKHLQRLYDDLVAADHAKPGLFGKLLGRKSGGPVKGLYFWGGVGRGKTYLVDTFFESLPFEQKVRTHFHRFMKRVHEELKTLKGEKNPLTIIGKRFADEARVICFDEFFVSDITDAMILATLLEELFKNGVSLVATSNIVPDGLYKDGLQRARFLPAIALLKEHTEIVNVDSGVDYRLRALEQAELFHWPLSEQVEEEMARSFKALTPDCAKAQRDEALMIENREIRARLTCDDVAWFEFRELCDGPRSQNDYIELAKIFHAVLISNVEQMGVTKDDMARRFINLVDEFYDRSVKLIISAEVELKDLYSGGRLEFEFQRTLSRLLEMQSHEYLTRPHRP
notes: also called PA4438; ZapE protein; source: E. coli BL21 (DE3), pET28a, purified (Ni NTA beads, Mono Q ion exchange, Superdex 200 gel filtration)
  binding result: binds
